T1: FGFR1-IIIb (human, UniProt P11362-19 22-376, limits assumed)
T1 construct: Soluble FGFR antigen in SPR
T1 sequence (looked up): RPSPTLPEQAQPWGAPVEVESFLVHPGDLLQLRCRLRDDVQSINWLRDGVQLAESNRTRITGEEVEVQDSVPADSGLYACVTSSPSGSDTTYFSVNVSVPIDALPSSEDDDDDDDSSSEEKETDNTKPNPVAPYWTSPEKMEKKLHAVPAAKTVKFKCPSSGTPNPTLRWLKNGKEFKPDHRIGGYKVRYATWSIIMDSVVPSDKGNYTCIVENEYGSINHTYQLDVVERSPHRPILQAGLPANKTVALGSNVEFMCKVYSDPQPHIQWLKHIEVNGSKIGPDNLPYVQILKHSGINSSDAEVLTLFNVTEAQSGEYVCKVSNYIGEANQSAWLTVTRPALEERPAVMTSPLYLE

T2: FGFR3-IIIc (human, UniProt P22607 23-375, limits assumed)
T2 construct: also called human FGFR3-IIIc
T2 sequence: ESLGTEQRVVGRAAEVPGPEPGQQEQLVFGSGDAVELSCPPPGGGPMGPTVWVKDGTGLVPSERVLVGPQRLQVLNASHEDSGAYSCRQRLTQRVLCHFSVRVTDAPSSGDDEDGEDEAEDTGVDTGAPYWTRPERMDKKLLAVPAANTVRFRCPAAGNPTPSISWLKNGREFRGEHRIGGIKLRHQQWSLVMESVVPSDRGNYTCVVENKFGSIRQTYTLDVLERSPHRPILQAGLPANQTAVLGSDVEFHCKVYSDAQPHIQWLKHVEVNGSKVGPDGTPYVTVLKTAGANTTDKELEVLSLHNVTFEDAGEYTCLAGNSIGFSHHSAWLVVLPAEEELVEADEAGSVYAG

T3: FGFR2-IIIb (D2D3) (human)
T3 construct: also called human FGFR2-IIIb ECD (residue 140-369)
T3 chain: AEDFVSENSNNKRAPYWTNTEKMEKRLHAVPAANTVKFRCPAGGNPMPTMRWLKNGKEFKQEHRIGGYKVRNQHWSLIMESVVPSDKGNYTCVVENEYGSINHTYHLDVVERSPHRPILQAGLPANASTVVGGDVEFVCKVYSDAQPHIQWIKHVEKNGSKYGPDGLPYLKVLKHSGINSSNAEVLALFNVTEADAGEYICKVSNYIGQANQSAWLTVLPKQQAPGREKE

T4: FGFR4 (human, UniProt P22455 22-369, limits assumed)
T4 construct: also called human FGFR4; FGFR4-His
T4 sequence (looked up): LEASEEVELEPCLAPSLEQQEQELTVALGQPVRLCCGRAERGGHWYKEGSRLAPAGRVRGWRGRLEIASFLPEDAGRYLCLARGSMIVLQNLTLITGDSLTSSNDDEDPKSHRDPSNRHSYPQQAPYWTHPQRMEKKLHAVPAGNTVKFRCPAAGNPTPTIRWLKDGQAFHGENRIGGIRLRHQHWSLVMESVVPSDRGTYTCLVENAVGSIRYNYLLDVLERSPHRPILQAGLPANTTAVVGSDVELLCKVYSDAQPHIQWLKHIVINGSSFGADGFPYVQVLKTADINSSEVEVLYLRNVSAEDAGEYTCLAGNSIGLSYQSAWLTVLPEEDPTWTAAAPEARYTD

T5: FGFR4-Fc (human, UniProt P22455 22-369)
T5 sequence (looked up): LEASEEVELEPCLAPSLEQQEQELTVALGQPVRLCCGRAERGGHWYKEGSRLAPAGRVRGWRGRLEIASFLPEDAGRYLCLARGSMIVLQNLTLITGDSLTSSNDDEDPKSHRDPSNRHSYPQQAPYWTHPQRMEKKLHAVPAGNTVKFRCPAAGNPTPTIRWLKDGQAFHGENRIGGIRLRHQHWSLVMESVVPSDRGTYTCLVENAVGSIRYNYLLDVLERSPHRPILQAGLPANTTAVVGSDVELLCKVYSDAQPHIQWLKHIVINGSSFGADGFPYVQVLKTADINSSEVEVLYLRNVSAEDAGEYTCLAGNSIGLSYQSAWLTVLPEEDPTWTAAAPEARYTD

T6: FGFR4-6xHis (human, UniProt P22455 22-369, limits assumed)
T6 sequence: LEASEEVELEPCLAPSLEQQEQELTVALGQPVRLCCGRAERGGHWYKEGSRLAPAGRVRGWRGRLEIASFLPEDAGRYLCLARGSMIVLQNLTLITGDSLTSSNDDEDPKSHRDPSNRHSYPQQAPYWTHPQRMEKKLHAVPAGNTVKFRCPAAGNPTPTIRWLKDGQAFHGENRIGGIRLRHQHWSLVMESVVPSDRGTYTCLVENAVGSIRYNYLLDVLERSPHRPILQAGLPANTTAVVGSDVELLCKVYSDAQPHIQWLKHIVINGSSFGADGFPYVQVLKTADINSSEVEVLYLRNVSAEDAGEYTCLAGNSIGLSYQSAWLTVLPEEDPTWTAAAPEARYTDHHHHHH

B1: 11D4 (antibody, V domains shown)
VH: QVQVKESGPGLVAPSQSLSITCTVSGFSLTNYGVSWIRQPPGKGLEWLGVIWGDGSINYHSALISRLTITKDNSKSQVFLKLNSLEADDTATYYCAKTHDWFDYWGQGTLVTVSA
VL: DIQMTQTPSSLSASLGDRVTINCRASQDISNYFNWYQQKPNGTIKLLIYYTSRLQSGVPSRFSGSGSGTDYSLTISNLEQEDKATYFCHQVRTLPWTFGGGTKLEIK
B2: 14C6 (antibody, V domains shown)
VH: QIQLQQSGAELMKPGASVRMSCKASGYTFSSYWIEWVKQRSGHGLEWIGEIFPGGGSTIYNENFRDKATFTADTSSNTAYMQLSSLTSEDSAVYFCARRGYYDAAWFDYWGQGTLVTVSA
VL: QIVLTQSPAIMSASPGERVTLTCSASSSLSSSYLYWYQQKPGSSPKLWIYGASNLASGVPGRFSGSGSGTSYSLTISSMEAEDAASYFCHQWSSYPLTFGSGTKLELK
B3: R3Mab (antibody, human IgG1, kappa, V domains shown)
VH: EVQLVESGGGLVQPGGSLRLSCAASGFTFTSTGISWVRQAPGKGLEWVGRIYPTNGSTNYADSVKGRFTISADTSKNTAYLQMNSLRAEDTAVYYCARTYGIYDLYVDYTEYVMDYWGQGTLVTVSS
VL: DIQMTQSPSSLSASVGDRVTITCRASQDVDTSLAWYKQKPGKAPKLLIYSASFLYSGVPSRFSGSGSGTDFTLTISSLQPEDFATYYCQQSTGHPQTFGQGTKVEIKR
notes: IgG in SPR; also called parental anti-FGFR3 antibody
B4: Fab fragment of Mab 2B.1.3 (Fab, V domains shown)
VH: EVQLVESGGGLVQPGGSLRLSCAASGFTFTSTGISWVRQAPGKGLEWVGRTHLGDGSTNYADSVKGRFTISADTSKNTAYLQMNSLRAEDTAVYYCARTYGIYDLYVDYTEYVMDYWGQGTLVTVSS
VL: DIQMTQSPSSLSASVGDRVTITCRASQDVDTSLAWYKQKPGKAPKLLIYSASFLYSGVPSRFSGSGSGTDFTLTISSLQPEDFATYYCQQSTGHPQTFGQGTKVEIKR
notes: Fab; also called 2B.1.3 Fab; Fab 2B.1.3
B5: 2B.1.3 (antibody, human IgG1, kappa, V domains shown)
VH: EVQLVESGGGLVQPGGSLRLSCAASGFTFTSTGISWVRQAPGKGLEWVGRTHLGDGSTNYADSVKGRFTISADTSKNTAYLQMNSLRAEDTAVYYCARTYGIYDLYVDYTEYVMDYWGQGTLVTVSS
VL: DIQMTQSPSSLSASVGDRVTITCRASQDVDTSLAWYKQKPGKAPKLLIYSASFLYSGVPSRFSGSGSGTDFTLTISSLQPEDFATYYCQQSTGHPQTFGQGTKVEIKR
notes: Full IgG1/kappa chains; also called Mab 2B.1.3
B6: 2B.1.3.10 (antibody, human IgG1, kappa, V domains shown)
VH: EVQLVESGGGLVQPGGSLRLSCAASGFPFTSQGISWVRQAPGKGLEWVGRTHLGDGSTNYADSVKGRFTISADTSKNTAYLQMNSLRAEDTAVYYCARTYGIYDTYDKYTEYVMDYWGQGTLVTVSS
VL: DIQMTQSPSSLSASVGDRVTITCRASQDVDTSLAWYKQKPGKAPKLLIYSASFLYSGVPSRFSGSGSGTDFTLTISSLQPEDFATYYCQQSTGHPQTFGQGTKVEIKR
notes: Full IgG1/kappa chains; also called Mab 2B.1.3.10
B7: 2B.1.1 (antibody, human IgG1, kappa, V domains shown)
VH: EVQLVESGGGLVQPGGSLRLSCAASGFTFTSTGISWVRQAPGKGLEWVGRYWAWDGSTNYADSVKGRFTISADTSKNTAYLQMNSLRAEDTAVYYCARTYGIYDLYVDYTEYVMDYWGQGTLVTVSS
VL: DIQMTQSPSSLSASVGDRVTITCRASQDVDTSLAWYKQKPGKAPKLLIYSASFLYSGVPSRFSGSGSGTDFTLTISSLQPEDFATYYCQQSTGHPQTFGQGTKVEIKR
notes: Full IgG1/kappa chains
B8: 2B.1.3.12 (antibody, human IgG1, kappa, V domains shown)
VH: EVQLVESGGGLVQPGGSLRLSCAASGFPFTSTGISWVRQAPGKGLEWVGRTHLGDGSTNYADSVKGRFTISADTSKNTAYLQMNSLRAEDTAVYYCARTYGIYDTYDMYTEYVMDYWGQGTLVTVSS
VL: DIQMTQSPSSLSASVGDRVTITCRASQDVDTSLAWYKQKPGKAPKLLIYSASFLYSGVPSRFSGSGSGTDFTLTISSLQPEDFATYYCQQSTGHPQTFGQGTKVEIKR
notes: Full IgG1/kappa chains; also called Mab 2B.1.3.12
B9: 25F7 (antibody, V domains shown)
VH: EVQLQQSGAELLKPGASVRLSCTASGFNIQDTFTHWVRQRPEQGLEWIGRIDPSNGNTKYDPKFQGKAKILADTSSNTAYLQLIGLTSEDTAVYYCASRALGNGYAMDYWGQGTSVTVSS
VL: DIQMTQSSSYLSVSLGGRVTITCKASDHINNWLAWYQQKPGNAPRLLISGASNLETGIPSRFSGSGSGKDYTLTITSLQTEDVATYYCQQYWNTPFTFGSGTKLEIK

How the values were obtained:
hKLB = target: T7, hKLB; assay: FACS on 293 cells expressing hKLB, antibody at 0.8 ug/ml
T7 construct: also called human beta-Klotho on 293 cells
T7 sequence (chain, as listed by the source limits assumed): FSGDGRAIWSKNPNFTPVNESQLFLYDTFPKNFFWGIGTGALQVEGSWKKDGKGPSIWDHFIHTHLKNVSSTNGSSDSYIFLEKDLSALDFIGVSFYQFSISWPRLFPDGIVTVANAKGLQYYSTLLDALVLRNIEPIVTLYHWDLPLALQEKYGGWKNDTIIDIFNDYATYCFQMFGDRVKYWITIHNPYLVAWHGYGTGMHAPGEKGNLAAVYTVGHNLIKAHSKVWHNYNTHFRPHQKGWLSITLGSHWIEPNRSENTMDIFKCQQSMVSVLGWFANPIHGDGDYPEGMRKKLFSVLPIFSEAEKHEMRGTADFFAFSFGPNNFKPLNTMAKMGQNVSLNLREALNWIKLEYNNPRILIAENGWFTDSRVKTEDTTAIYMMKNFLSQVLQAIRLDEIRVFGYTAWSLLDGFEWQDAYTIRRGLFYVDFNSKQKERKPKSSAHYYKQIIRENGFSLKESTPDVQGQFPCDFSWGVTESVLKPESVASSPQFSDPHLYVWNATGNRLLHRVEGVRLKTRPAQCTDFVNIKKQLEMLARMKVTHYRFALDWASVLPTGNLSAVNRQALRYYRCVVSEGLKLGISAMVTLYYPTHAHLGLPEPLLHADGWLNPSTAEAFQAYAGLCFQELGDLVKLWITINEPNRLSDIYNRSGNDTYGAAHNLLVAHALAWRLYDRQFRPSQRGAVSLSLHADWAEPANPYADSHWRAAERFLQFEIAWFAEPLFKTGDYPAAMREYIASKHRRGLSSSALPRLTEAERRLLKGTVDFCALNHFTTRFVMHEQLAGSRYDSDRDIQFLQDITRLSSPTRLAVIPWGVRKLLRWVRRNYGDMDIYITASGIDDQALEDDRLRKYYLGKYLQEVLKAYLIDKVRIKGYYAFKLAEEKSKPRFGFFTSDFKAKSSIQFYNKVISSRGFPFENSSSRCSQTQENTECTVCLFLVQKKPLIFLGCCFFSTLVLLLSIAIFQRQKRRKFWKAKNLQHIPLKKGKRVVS

FGFR1-IIIb [1] = target: T1, FGFR1-IIIb; assay: SPR
Procedure: (§1) A saturated amount of anti-human Fc monoclonal antibody was immobilized onto a CM5 biosensor chip by following the product instructions. […] FGFR antigens of various concentrations were injected at a flow rate 30 μL/min. After each binding cycle, flow cells were regenerated using 3M MgCl₂. Kinetic analyses were performed using the T100 evaluation software to obtain the kinetic and affinity constants.
(§2) 1.3 variants were determined by capturing FGFR4-Fc and flowing the antibody Fab fragments (Table 12).

FGFR3-IIIc [2] = target: T2, FGFR3-IIIc; assay: SPR
Procedure: as §1, §2

FGFR2-IIIb (D2D3) = target: T3, FGFR2-IIIb (D2D3); assay: SPR (Biacore)
FGFR3-IIIc [3] = target: T2, FGFR3-IIIc; assay: SPR (Biacore T100), IgG captured by anti-human Fc, FGFR flowed
Procedure: as §1

FGFR4 = target: T4, FGFR4; assay: blocking ELISA: FGFR4-Fc captured on an anti-human Fc plate, antibody titrated, FGF-19 (with heparin) is the ligand, bound FGF-19 read as OD450
Procedure: (§3) The plate was washed 5 times before being added with the antibody and FGF ligand mixtures, which was prepared as 49 μL 100 ng/mL FGF ligand, 1 μL 25 mg/mL Heparin (Sigma-Aldrich) and 50 μL antibody dilutions. After shaking at RT for 2 h, the plate was washed 5 times. Bound ligand was detected by subsequent incubations at RT with 0.5 μg/mL biotinylated anti-FGF antibodies (R&D Biosystems) for 0.5 h, 1:2,500-diluted Streptavidin-HRP (Invitrogen) for 0.5 h and the TMB substrate until enough color development.

FGFR2-IIIc [4] = target: T8, FGFR2-IIIc (human, UniProt P21802 22-377); assay: blocking ELISA: FGFR2-IIIc-Fc captured on an anti-human Fc plate, antibody titrated, FGF-1 (with heparin) is the ligand, bound FGF-1 read as OD450
T8 construct: also called human FGFR2-IIIc; FGFR2-IIIc-His
T8 sequence (P21802 22-377 limits assumed): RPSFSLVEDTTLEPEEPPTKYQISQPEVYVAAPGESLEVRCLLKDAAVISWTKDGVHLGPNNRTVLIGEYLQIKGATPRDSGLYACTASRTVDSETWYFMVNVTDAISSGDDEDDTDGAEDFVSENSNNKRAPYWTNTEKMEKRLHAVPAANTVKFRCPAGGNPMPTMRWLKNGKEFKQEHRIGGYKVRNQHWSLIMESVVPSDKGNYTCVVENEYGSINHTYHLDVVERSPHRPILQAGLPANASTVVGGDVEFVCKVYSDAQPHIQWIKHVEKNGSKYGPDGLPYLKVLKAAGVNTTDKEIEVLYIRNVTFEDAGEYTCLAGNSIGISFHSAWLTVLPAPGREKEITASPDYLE
Procedure: as §3

FGFR3-IIIc [5] = target: T2, FGFR3-IIIc; assay: blocking ELISA: FGFR3-IIIc-Fc captured on an anti-human Fc plate, antibody titrated, FGF-1 (with heparin) is the blocked ligand, bound FGF-1 read as OD450
Procedure: as §3

FGFR4-Fc = target: T5, FGFR4-Fc; assay: SPR, FGFR4-Fc captured, Fab flowed; FGFR4-Fc captured, Fab flowed
Procedure: Later, the KD for the 2B. 1.3 variants were determined by capturing FGFR4-Fc and flowing the antibody Fab fragments (Table 12).

FGFR2-IIIc [6] = target: T8, FGFR2-IIIc; assay: SPR
Procedure: as §1, §2

FGFR3-IIIc [7] = target: T2, FGFR3-IIIc; assay: surface plasmon resonance (Biacore)
FGFR2-IIIc [8] = target: T8, FGFR2-IIIc; assay: SPR (Biacore T100), IgG captured by anti-human Fc, FGFR flowed
Procedure: as §1

FGFR2-IIIc [9] = target: T8, FGFR2-IIIc; assay: blocking ELISA: FGFR2-IIIc-Fc captured on an anti-human Fc plate, antibody titrated, FGF-1 (with heparin) is the blocked ligand, bound FGF-1 read as OD450
Procedure: as §3

FGFR1-IIIb [10] = target: T1, FGFR1-IIIb; assay: SPR (Biacore T100), IgG captured by anti-human Fc, FGFR flowed
Procedure: as §1

FGFR4-6xHis = target: T6, FGFR4-6xHis; assay: SPR, IgG captured, FGFR4-6xHis flowed
Procedure: as §1, §2

Binder	binding result (hKLB)	binding result (FGFR1-IIIb [1])	Kd (FGFR3-IIIc [2])	Kd (FGFR3-IIIc [3])	IC50 (read off the curve) (FGFR3-IIIc [5])	Kd (FGFR2-IIIc [6])	Kd (FGFR3-IIIc [7])	Kd (FGFR2-IIIc [8])	also measured
B1	binds	–	–	–	–	–	–	–	–
B2	binds	–	–	–	–	–	–	–	–
B3	–	no binding	0.61 nM	0.61 nM	2 to 3 nM	–	–	–	binding result (FGFR2-IIIb (D2D3)): no binding (tested: 200 nM); binding result (FGFR4): no binding (tested: 500 nM); binding result (FGFR2-IIIc [4]): no binding (tested: 128 nM)
B4	–	–	–	–	–	–	–	–	Kd (FGFR4-Fc): 32 nM
B5	–	no binding	0.07 nM	0.07 nM	2 to 3 nM	2 nM	0.0834 nM	2 nM	Kd (FGFR2-IIIb (D2D3)): 0.71 nM; IC50 (read off the curve) (FGFR2-IIIc [9]): ~5 nM
B6	–	–	–	0.25 nM	2 to 3 nM	–	–	1.1 nM	binding result (FGFR1-IIIb [10]): no binding (tested: 500 nM)
B7	–	no binding	–	–	–	2.8 nM	0.0663 nM	–	Kd (FGFR4-6xHis): 2.8 nM
B8	–	–	0.72 nM	0.72 nM	2 to 3 nM	6.1 nM	0.28 nM	6.1 nM	binding result (FGFR1-IIIb [10]): no binding (tested: 500 nM)
B9	binds	–	–	–	–	–	–	–	–
